Reference: patent US20170165373A1

Target: human BCMA (huBCMA), full length, on cells (human) (UniProt Q02223)
Assay: FACS, H929 cells, negative control

Chain of human BCMA (huBCMA), full length, on cells (human) (Q02223 whole entry N81S): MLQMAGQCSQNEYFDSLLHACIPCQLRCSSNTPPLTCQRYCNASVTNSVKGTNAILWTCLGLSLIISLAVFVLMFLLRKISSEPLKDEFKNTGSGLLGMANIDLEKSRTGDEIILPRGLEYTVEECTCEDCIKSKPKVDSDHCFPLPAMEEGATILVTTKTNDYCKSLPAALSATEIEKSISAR

Question: hu IgG1 (antibody) was tested. Which MFI did it give?
Answer: 8
